{"source": "patent US20250236878A1", "about": "(priority 2019, published 2025)", "key": {"[1]": {"system": "Cladosporium cladosporioides", "type": "in vivo", "conditions": "6 days"}, "[2]": {"system": "Pseudomonas syringae pv. actinidiae (PSA-V)", "type": "in vivo", "conditions": "at 6, 16 and 23 DAI; P<0.1"}, "[3]": {"system": "HLB-infected citrus trees", "experiment": "Citrus trials of Examples 20-24: fruit yield, size, count and drop, average over orange and grapefruit trials", "type": "in vivo, Citrus sinesis; Citrus paradisi", "conditions": "trunk injection (Table 64)", "description": "All fruit with a diameter greater than or equal to 1.6 inches (40 mm) were hand-picked and collected for each tree. The total “Fruit Weight” (in kilograms) per individual tree was measured and recorded. Trees with total fruit weights less than or greater than 2 standard deviations (2STDEV) from the trial mean were considered to be outliers and removed from the dataset. Fruit size was assessed as the “Average Weight per Fruit” in grams (weight of 20 random fruit per tree, divided by 20) and “Average Fruit Diameter” in millimeters, as described in Example 1. The “Average Fruit Count” per tree was assessed as the total “Fruit Weight” divided by “Average Weight per Fruit”. “Fruit Drop” was assessed as for Example 1. Fruit quality was assessed as for Example 2, with the exception that one set of fruit consisted for 15 total fruit, each corresponding to a sampling of 3 fruit from 5 trees of the same experimental treatment block. Each set of 15 fruit were weighed (gram; g) and then juiced together. Average yield, % fruit drop, fruit size, and juice quality for each of the tested compositions are described in Examples 20-24."}, "[4]": {"system": "corn hybrids Beck's 6127 BHMF and 6127 DVMF", "conditions": "in vivo"}, "[5]": {"system": "Citrus trees infected with Candidatus Liberibacter asiaticus", "type": "in vivo, Citrus x paradisi", "conditions": "[…], trunk injection"}, "[6]": {"system": "Citrus trees infected with CLas", "experiment": "Recovery composition trunk injection: 'Valencia' orange fruit yield (Examples 3, 19)", "type": "in vivo, Citrus sinesis"}, "[7]": {"system": "Citrus trees infected with CLas", "set-up": "species or system Citrus sinesis", "conditions": "in vivo"}, "[8]": {"system": "Citrus trees infected with CLas", "type": "in vivo, Citrus x paradisi; Citrus sinesis", "conditions": "average of 'Ruby Red' and 'Valencia'", "excerpt": "Treatments as previously described in Example 3; β-1,3-Endoglucanase from barley SEQ ID NO: 731 (Treatment 1) and Bt.4Q7Flg22 from Bacillus thurigiensis SEQ ID NO: 226 (Treatment 5) increased fruit yield (kg/tree) as described in Table 56. Fruit quality, and juice quality of ‘Valencia’ oranges are described in Table 57.\nFor direct comparison of the treatment results between grapefruit (‘Ruby Red’) and orange (‘Valencia’) are referenced in Table 56 above."}, "[9]": {"conditions": "'Valencia' orange, trunk injection"}}, "note": "Like-named read-outs stand apart in the source and are kept apart here."}
{"molecule": "β-1,3-endoglucanase (DK-1) Cellulosimicrobium cellulans (SEQ ID NO: 772) (protein, Cellulosimicrobium cellulans strain DK-1) APGDLLWSDEFDGAAGSAPNPAVWNHETGAHGWGNAELQNYTASRANSALDGQGNLVITARREGDGSYTSARMTTQGKYQPQYGRIEARIQIPRGQGIWPAFWMLGGSFPGTPWPSSGEIDIMENVGFEPHRVHGTVHGPGYSGGSGITGMYQHPQGWSFADTFHTFAVDWKPGEITWFVDGQQFHRVTRASVGANAWVFDQPFFLILNVAVGGQWPGYPDGTTQLPQQMKVDYVRVYDNGSGSSNPGNPGTGLPTGTGAVRAANGMCIDVPWADPTDGNPVQIVTCSGNAAQTWTRGSDGTVRALGKCLDVRDGSTTRGAAVQVWTCNGTGAQKWAYDAGSKALRNPQSGLCLDATGGAPLHDGQRLQTWTCNGTTAQQWTL", "values": [{"measurement": "Observed mold growth spots (out of 18 inoculated)", "setting": "[1]", "value": "12 spots (out of 18 inoculated)"}, {"measurement": "Percent of mold growth relative to control (mold only)", "setting": "[1]", "value": 85, "unit": "%"}]}
{"molecule": "Serine Protease 2: serine protease 2 cloned from Bacillus subtilis, four substitutions relative to SEQ ID NO: 722 (protein, listed as Bacillus subtilis) SSKTSADLEKAEVFGDIDMTTSKKTTVIVELKEKSLAEAKEAGESQSKSKLKTARTQAKNKAIKAVKNGKVNREYEQVFSGFSMKLPANEIPKLLAVKDVKAVYPNVTYKTDNMKDKDVTISEDAVSPQMDDSAPYIGANDAWDLGYTGKGIKVAIIDTGVEYNHPDLKKNFGQYKGYDFVDNDYDPKETPTGDPRGEATDHGTHVAGTVAANGTIKGVAPDATLLAYRVLGPGGSGTTENVIAGVERAVQDGADVMNLSLGNSLNNPDWATSTALDWAMSEGVVAVTSNGNSGPNGWTVGSPGTSREAISVGATQLPLDEYAVTFGSYSSAKVMGYNKEDDVKALNNKEVELVEAGIGEAKDFEGKDLTGKVAVVKRGSIAFVDKADNAKKAGAIGMVVYNNLSGEIEANVPGMSVPTIKLSLEDGEKLVSALKAGETKTTFKLTVSKALGEQVADFSSRGPVMDTWMIKPDISAPGVNIVSTIPTHDPDHPYGYGSKQGTSMASPHIAGAVAVIKQAKPKWSVEQIKAAIMNTAVTLKDSDGEVYPHNAQGAGSARIMNAIKADSLVSPGSCSYGTFLKENGNETKNETFTIENQSSIRKSYTLEYSFNGSGISTSGTSRVVIPAHQTGKATARVKVNTKKTKAGTYEGTVIVREGGKTVAKVPTLLIVKEPDYPRVTSVSVSEGSVQGTYQIETYLPAGAEELAFLVYDSNLDFAGQAGIYKNQDKGYQYFDWDGTINGGTKLPAGEYYLLAYAANKGKSSQVLTEEPFTVE", "values": [{"measurement": "PSA-V leaf spot symptoms in comparison to the untreated control", "setting": "[2]", "value": "significantly reduced"}]}
{"molecule": "Amylase from Bacillus subtilis 168: starch-degrading Amylase, trunk-injected at 92 U per tree (protein, UniProt P00691 42-659, looked up) Alpha-amylase: LTAPSIKSGTILHAWNWSFNTLKHNMKDIHDAGYTAIQTSPINQVKEGNQGDKSMSNWYWLYQPTSYQIGNRYLGTEQEFKEMCAAAEEYGIKVIVDAVINHTTSDYAAISNEVKSIPNWTHGNTQIKNWSDRWDVTQNSLLGLYDWNTQNTQVQSYLKRFLDRALNDGADGFRFDAAKHIELPDDGSYGSQFWPNITNTSAEFQYGEILQDSASRDAAYANYMDVTASNYGHSIRSALKNRNLGVSNISHYASDVSADKLVTWVESHDTYANDDEESTWMSDDDIRLGWAVIASRSGSTPLFFSRPEGGGNGVRFPGKSQIGDRGSALFEDQAITAVNRFHNVMAGQPEELSNPNGNNQIFMNQRGSHGVVLANAGSSSVSINTATKLPDGRYDNKAGAGSFQVNDGKLTGTINARSVAVLYPDDIAKAPHVFLENYKTGVTHSFNDQLTITLRADANTTKAVYQINNGPETAFKDGDQFTIGKGDPFGKTYTIMLKGTNSDGVTRTEKYSFVKRDPASAKTIGYQNPNHWSQVNAYIYKHDGSRVIELTGSWPGKPMTKNADGIYTLTLPADTDTTNAKVIFNNGSAQVPGQNQPGFDYVLNGLYNDSGLSGSLPH", "values": [{"measurement": "average increase in fruit weight relative to control", "setting": "[3]", "value": 5, "unit": "%"}]}
{"molecule": "ACC deaminase: 1-aminocyclopropane-1-carboxylate deaminase polypeptide with two substitutions relative to wild type (protein, listed as Bacillus thuringiensis) MNLAKFPRKKYTESYTPIEKLNNFSEALGGPTIYFKRDDLLGLTAGGNKTRKLEFLVADAQEKGADTLITAGGIQSNHCRLTLAAAVKEKMKCILVLEEGLEPEEKRDFNGNYFLYHLLGAENVIVVPNGADLMEEMNKVAKEVSEKGSTPYVIPVGGSNPTGAMGYVACAQEIMAQSFEQGIDFSSVVCVSGSGGMHAGLITGFSGTQSHIPVIGINVSRGKAEQEEKVAKLVDETSAHVGIPNFISRDAVTCFDEYVGPGYALPTPEMVEAVQLLAKTEGILLDPVYEGKAVAGLIDLIRKGKFNKEDNILFVHLGGSPALYANTSLFA", "values": [{"measurement": "average yield benefit over the control corn plants", "setting": "[4]", "value": "+7.16 flu/Ac"}]}
{"molecule": "SEQ ID NO: 731: callose-degrading β-1,3-endoglucanase from barley (Hordeum vulgare) (protein, Hordeum vulgare) GVCYGVIGNNLPSRSDVVQLYRSKGINGMRIYFADGQALSALRNSGIGLILDIGNDQLANIAASTSNAASWVQNNVRPYYPAVNIKYIAAGNEVQGGATQSILPAMRNLNAALSAAGLGAIKVSTSIRFDEVANSFPPSAGVFKNAYMTDVARLLASTGAPLLANVYPYFAYRDNPGSISLNYATFQPGTTVRDQNNGLTYTSLFDAMVDAVYAALEKAGAPAVKVVVSESGWPSAGGFAASAGNARTYNQGLINHVGGGTPKKREALETYIFAMFNENQKTGDATERSFGLFNPDKSPAYNIQF", "values": [{"measurement": "increased yield compared to the untreated control", "setting": "[5]; harvested 20 months post-treatment", "value": 4.1, "unit": "kg per tree"}, {"measurement": "increased yield compared to the untreated control", "setting": "[6]; 'Valencia' trees, trunk injection", "value": 14.5, "unit": "kg per tree"}, {"measurement": "yield, average relative to control", "setting": "[6]; 'Valencia', combined average of 2 sites (Table 56)", "value": 124, "unit": "%"}, {"measurement": "fruit size and ^oBrixc to Citric Acid ratio (Brix:CA) relative to the untreated control", "setting": "[7]", "value": "increased"}]}
{"molecule": "β-1,3-Endoglucanase from Barley (SEQ ID NO: 731) (protein, Hordeum vulgare) GVCYGVIGNNLPSRSDVVQLYRSKGINGMRIYFADGQALSALRNSGIGLILDIGNDQLANIAASTSNAASWVQNNVRPYYPAVNIKYIAAGNEVQGGATQSILPAMRNLNAALSAAGLGAIKVSTSIRFDEVANSFPPSAGVFKNAYMTDVARLLASTGAPLLANVYPYFAYRDNPGSISLNYATFQPGTTVRDQNNGLTYTSLFDAMVDAVYAALEKAGAPAVKVVVSESGWPSAGGFAASAGNARTYNQGLINHVGGGTPKKREALETYIFAMFNENQKTGDATERSFGLFNPDKSPAYNIQF", "values": [{"measurement": "Average Yield (kg per tree)", "setting": "[5]; harvested 20 months post-treatment, Bt.4Q7Flg22 0.33 mg/tree, endoglucanase 2600 U/tree, mixture 660 U + 660 U + 0.27 mg/tree", "value": 38.7, "unit": "kg per tree"}, {"measurement": "Average Yield (kg per tree) Relative to Untreated", "setting": "[5]; untreated = 34.6", "value": "(112%)"}]}
{"molecule": "B-1,3-Endoglucanase from Barley (SEQ ID NO: 731) (protein, Hordeum vulgare) GVCYGVIGNNLPSRSDVVQLYRSKGINGMRIYFADGQALSALRNSGIGLILDIGNDQLANIAASTSNAASWVQNNVRPYYPAVNIKYIAAGNEVQGGATQSILPAMRNLNAALSAAGLGAIKVSTSIRFDEVANSFPPSAGVFKNAYMTDVARLLASTGAPLLANVYPYFAYRDNPGSISLNYATFQPGTTVRDQNNGLTYTSLFDAMVDAVYAALEKAGAPAVKVVVSESGWPSAGGFAASAGNARTYNQGLINHVGGGTPKKREALETYIFAMFNENQKTGDATERSFGLFNPDKSPAYNIQF", "values": [{"measurement": "Average Yield (Relative to Untreated)", "setting": "[5]", "value": "(112%)"}, {"measurement": "Average Yield (kg per tree)", "setting": "[5]", "value": 38.7, "unit": "kg per tree"}, {"measurement": "Average Yield (Relative to Untreated), Average of 2 sites", "setting": "[8]", "value": "(124%)"}, {"measurement": "Average Yield (Relative to Untreated)", "setting": "[6]; [9]", "value": "(136%)"}, {"measurement": "Average Yield (kg per tree)", "setting": "[6]; [9]", "value": 54.8, "unit": "kg per tree"}, {"measurement": "Average Fruit Diameter (Relative to Untreated)", "setting": "[7]", "value": "(104%)"}, {"measurement": "Average Fruit Diameter (mm)", "setting": "[7]", "value": 62.76, "unit": "mm"}, {"measurement": "Brix:CA Ratio", "setting": "[7]", "value": 12.01}, {"measurement": "Brix:CA Ratio (Relative to Untreated)", "setting": "[7]", "value": "(+0.76)"}]}
